According to ChEMBL document CHEMBL2074573, “Is the monkey an appropriate animal model to examine drug-drug interactions involving renal clearance? Effect of probenecid on the renal elimination of H2 receptor antagonists” (J Pharmacol Exp Ther, 2005):

Key:
not read [1] = substrate: CN/C(=N/CCSCc1nc[nH]c1C)NC#N; assay: not read
not read [2] = substrate: NC(N)=Nc1nc(CSCCC(N)=NS(N)(=O)=O)cs1; assay: not read
[3] = substrate: CNC(=C[N+](=O)[O-])NCCSCc1ccc(CN(C)C)o1; assay: TP_TRANSPORTER: cell accumulation in hOAT3 expressing HEK cells; type: functional, cell-based, HEK293

B1: Organic anion transporter 3 (Homo sapiens) (protein)
chain: MTFSEILDRVGSMGHFQFLHVAILGLPILNMANHNLLQIFTAATPVHHCRPPHNASTGPWVLPMGPNGKPERCLRFVHPPNASLPNDTQRAMEPCLDGWVYNSTKDSIVTEWDLVCNSNKLKEMAQSIFMAGILIGGLVLGDLSDRFGRRPILTCSYLLLAASGSGAAFSPTFPIYMVFRFLCGFGISGITLSTVILNVEWVPTRMRAIMSTALGYCYTFGQFILPGLAYAIPQWRWLQLTVSIPFFVFFLSSWWTPESIRWLVLSGKSSKALKILRRVAVFNGKKEEGERLSLEELKLNLQKEISLAKAKYTASDLFRIPMLRRMTFCLSLAWFATGFAYYSLAMGVEEFGVNLYILQIIFGGVDVPAKFITILSLSYLGRHTTQAAALLLAGGAILALTFVPLDLQTVRTVLAVFGKGCLSSSFSCLFLYTSELYPTVIRQTGMGVSNLWTRVGSMVSPLVKITGEVQPFIPNIIYGITALLGGSAALFLPETLNQPLPETIEDLENWSLRAKKPKQEPEVEKASQRIPLQPHGPGLGSS
B1 showed a Km (not read [1]) of 149 µM, a Km (not read [2]) of 124 µM and a Km [3] of 234 µM.
